± gives the standard error. For some of these results: This sample holds only a part of the variants without activity.
B1: glmS ribozyme (parent)
chain: AUAAAAGCGCCAGAACUACAGAAAUGUAGUUGACGAGGAGGAGGUUUAUCGAAUUUUCGGCGGAUGCCUCCAAA

Experiments:
Details in all cases: with glucosamine-6-phosphate
glucosamine-6-phosphate [1] = variants of: B1; assay: kcat; higher = faster cleavage; RNA array
How it was run: (§1)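 Glucosamine-6-phosphate in HEPES/KCl/Mg(OAc)2 buffer, at 40 μM to 10 mM, was flowed over barcoded ribozyme variants transcribed in situ by E. coli RNA polymerase on sequenced MiSeq chips. Tracking was through a hybridised Cy3 probe at 37 °C. kobs, kcat and KM came from exponential decay fits and weighted Michaelis–Menten fits of normalised per-tile medians.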

glucosamine-6-phosphate [2] = variants of: B1; assay: KM; higher = weaker cofactor use; RNA array
How it was run: as §1

glucosamine-6-phosphate [3] = variants of: B1; assay: self-cleavage kobs at 640 uM GlcN6P; higher = faster cleavage; RNA array
How it was run: as §1

glucosamine-6-phosphate [4] = variants of: B1; assay: self-cleavage kobs at 2500 uM GlcN6P; higher = faster cleavage; RNA array
How it was run: as §1

glucosamine-6-phosphate [5] = variants of: B1; assay: self-cleavage kobs at 10000 uM GlcN6P; higher = faster cleavage; RNA array
How it was run: as §1

glucosamine-6-phosphate [6] = variants of: B1; assay: self-cleavage kobs at 40 uM GlcN6P; higher = faster cleavage; RNA array
How it was run: as §1

glucosamine-6-phosphate [7] = variants of: B1; assay: self-cleavage kobs at 160 uM GlcN6P; higher = faster cleavage; RNA array
How it was run: as §1

Variant | kcat (glucosamine-6-phosphate [1]) [s⁻¹] | KM (glucosamine-6-phosphate [2]) [µM] | self-cleavage kobs at 640 uM GlcN6P (glucosamine-6-phosphate [3]) [s⁻¹] | self-cleavage kobs at 2500 uM GlcN6P (glucosamine-6-phosphate [4]) [s⁻¹] | self-cleavage kobs at 10000 uM GlcN6P (glucosamine-6-phosphate [5]) [s⁻¹] | self-cleavage kobs at 40 uM GlcN6P (glucosamine-6-phosphate [6]) [s⁻¹] | self-cleavage kobs at 160 uM GlcN6P (glucosamine-6-phosphate [7]) [s⁻¹]
G41C A52G | 1.14e-05 ± 2.5e-06 | – | – | – | – | – | –
C11A A14G U65G | 0.000152 ± 6.2e-06 | 1370 ± 200 | 5.21e-05 ± 1.7e-05 | 9.32e-05 ± 2e-05 | 0.000135 ± 1.7e-05 | – | –
C50U U55G | 4.41e-05 ± 2.5e-06 | 304 ± 130 | 2.74e-05 ± 1.4e-05 | 4.31e-05 ± 7.9e-06 | 4.07e-05 ± 6.8e-06 | – | –
G51C C68A | < 1e-05 | – | – | – | – | < 1e-05 | –
A39C U57C | 1.89e-05 ± 2.4e-06 | – | – | 1.97e-05 ± 9.4e-06 | – | – | –
C50G G59C | 4e-05 ± 1.5e-05 | – | – | 5.58e-05 ± 2.3e-05 | – | – | 6.56e-05 ± 3.2e-05
A12C G37U | < 1e-05 | – | – | – | – | < 1e-05 | –
U31A G32A | 0.00184 ± 0.00083 | – | 0.000222 ± 3.2e-05 | 0.000381 ± 7.7e-05 | 0.0014 ± 0.00017 | – | 6.66e-05 ± 1.2e-05
U30G G66U | 0.000295 ± 2e-05 | 1760 ± 290 | 8.02e-05 ± 1.2e-05 | 0.000147 ± 3.5e-05 | 0.000256 ± 2.4e-05 | – | –
A39C G51A | < 1e-05 | – | – | < 1e-05 | < 1e-05 | – | –
A12C U69C | 0.0042 ± 0.0012 | 1520 ± 630 | 0.000885 ± 0.0002 | 0.00295 ± 0.00069 | 0.00396 ± 0.00074 | 0.000133 ± 2.3e-05 | 0.000486 ± 0.00013
G37A G38U | < 1e-05 | – | – | – | – | – | < 1e-05
G35U A53U | < 1e-05 | – | < 1e-05 | – | – | – | –
U49G A53C | 0.000546 ± 0.00023 | – | 7.82e-05 ± 2.4e-05 | 0.000369 ± 6.4e-05 | 0.000368 ± 8.5e-05 | – | –
G35U C70U | < 1e-05 | – | < 1e-05 | – | < 1e-05 | – | < 1e-05
G40A C70A | 0.000241 ± 1.6e-05 | 350 ± 60 | 0.000163 ± 2.5e-05 | 0.000235 ± 4.9e-05 | 0.000217 ± 3.8e-05 | 2.59e-05 ± 1.2e-05 | 6.86e-05 ± 1.9e-05
A33U U57A | < 1e-05 | – | – | – | – | – | –
C50U U57G | < 1e-05 | – | < 1e-05 | – | – | – | –

Variant | kcat (glucosamine-6-phosphate [1]) [s⁻¹] | KM (glucosamine-6-phosphate [2]) [µM] | self-cleavage kobs at 640 uM GlcN6P (glucosamine-6-phosphate [3]) [s⁻¹] | self-cleavage kobs at 2500 uM GlcN6P (glucosamine-6-phosphate [4]) [s⁻¹] | self-cleavage kobs at 10000 uM GlcN6P (glucosamine-6-phosphate [5]) [s⁻¹] | self-cleavage kobs at 40 uM GlcN6P (glucosamine-6-phosphate [6]) [s⁻¹] | self-cleavage kobs at 160 uM GlcN6P (glucosamine-6-phosphate [7]) [s⁻¹]
A14C A52G U57G | 0.000174 ± 4.6e-05 | – | 8.13e-05 ± 1.9e-05 | 8.49e-05 ± 2.9e-05 | 0.000182 ± 3.1e-05 | – | –
U30G U46C | 0.000516 ± 3.6e-05 | 1240 ± 170 | 0.000167 ± 3.1e-05 | 0.000377 ± 7.4e-05 | 0.000443 ± 8.5e-05 | – | 6.38e-05 ± 2.1e-05
U56A | 0.0171 ± 0.0053 | 1750 ± 650 | 0.00479 ± 0.00018 | 0.00725 ± 0.00034 | 0.0213 ± 0.00079 | 0.000397 ± 7.8e-06 | 0.00127 ± 7.4e-05
C10G A12U | 8.15e-05 ± 3.2e-05 | – | – | – | – | – | –
C11A C70U | 0.000155 ± 1e-05 | 210 ± 71 | 0.00011 ± 1.2e-05 | 0.000168 ± 1.4e-05 | 0.000145 ± 9.7e-06 | 2.69e-05 ± 1e-05 | 6.69e-05 ± 1.4e-05
A14U A36G G66U | < 1e-05 | – | < 1e-05 | – | < 1e-05 | – | –
U65C C71U | 0.000792 ± 0.00011 | 1460 ± 510 | 0.000236 ± 4.3e-05 | 0.000617 ± 0.00011 | 0.000659 ± 8e-05 | – | –
A12U G29U G59U C68G C70A | 3.34e-05 ± 1.4e-05 | – | 4.93e-05 ± 2.3e-05 | – | – | – | –
U49A U69A | 5.14e-05 ± 1.9e-05 | – | – | – | – | – | –
A42C C70U | 1.24e-05 ± 3.3e-06 | – | – | – | – | – | –
U46G C67G | 0.000343 ± 3.5e-05 | 1360 ± 310 | 0.000112 ± 1.1e-05 | 0.000241 ± 2.8e-05 | 0.000295 ± 2.3e-05 | 2.99e-05 ± 1.3e-05 | 2.86e-05 ± 8.4e-06
A12C U47A | 0.011 ± 0.0034 | 1620 ± 740 | 0.00346 ± 0.00056 | 0.00529 ± 0.00087 | 0.014 ± 0.0025 | 0.000246 ± 4.3e-05 | 0.00131 ± 0.00027
U30A A64G | 0.00654 ± 0.00069 | 1670 ± 240 | 0.00193 ± 0.00045 | 0.0035 ± 0.0008 | 0.00607 ± 0.0014 | 0.000149 ± 2.6e-05 | 0.000656 ± 0.00022
A6U A39U C70U | 6.69e-05 ± 6e-06 | 506 ± 210 | 3.98e-05 ± 1.7e-05 | 4.96e-05 ± 1.8e-05 | 6.76e-05 ± 1.9e-05 | – | –
A42C U55G | < 1e-05 | – | – | – | – | < 1e-05 | –
U65A G66U | 0.00046 ± 4.8e-05 | 3170 ± 620 | 7.65e-05 ± 9.6e-06 | 0.00023 ± 3.3e-05 | 0.000342 ± 3.1e-05 | – | –
U46C U55G | 0.00362 ± 0.00063 | 1790 ± 450 | 0.00107 ± 0.00023 | 0.00259 ± 0.00049 | 0.00271 ± 0.00058 | 8.17e-05 ± 2.1e-05 | 0.000255 ± 5.8e-05
A53C U55C | 0.0014 ± 0.00029 | 1150 ± 480 | 0.00052 ± 9.2e-05 | 0.00148 ± 0.00029 | 0.00116 ± 0.00017 | – | 0.00015 ± 4e-05

From the supplement of paper PMC7125110
